These results are taken from paper PMC4755738, “Actin filaments target the oligomeric maturation of the dynamin GTPase Drp1 to mitochondrial fission sites” (eLife, 2015).

For test [1], the target named is T1, Rabbit skeletal muscle actin (filaments) (rabbit, UniProt P68135 1-377). The test is described as follows: co-sedimentation; high-speed co-sedimentation; Drp1 1.3 uM with pre-polymerized actin filaments 0.25-10 uM, 1 hr at 23 C, 200 ul, ionic strength 75 mM (NaCl); 80,000 rpm 20 min 4 C (TLA-100.1); pellets on SDS-PAGE, Colloidal blue, ImageJ; apparent Kd. The settings on record: both partners purified.

Test [2] addresses T1, Rabbit skeletal muscle actin (filaments). Put plainly: cell-based or functional assay.

B1: Human Drp1 isoform 000 (E. coli-purified) (enzyme)
chain: MEALIPVINKLQDVFNTVGADIIQLPQIVVVGTQSSGKSSVLESLVGRDLLPRGTGIVTRRPLILQLVHVSQEDKRKTTGEENGVEAEEWGKFLHTKNKLYTDFDEIRQEIENETERISGNNKGVSPEPIHLKIFSPNVVNLTLVDLPGMTKVPVGDQPKDIELQIRELILRFISNPNSIILAVTAANTDMATSEALKISREVDPDGRRTLAVITKLDLMDAGTDAMDVLMGRVIPVKLGIIGVVNRSQLDINNKKSVTDSIRDEYAFLQKKYPSLANRNGTKYLARTLNRLLMHHIRDCLPELKTRINVLAAQYQSLLNSYGEPVDDKSATLLQLITKFATEYCNTIEGTAKYIETSELCGGARICYIFHETFGRTLESVDPLGGLNTIDILTAIRNATGPRPALFVPEVSFELLVKRQIKRLEEPSLRCVELVHEEMQRIIQHCSNYSTQELLRFPKLHDAIVEVVTCLLRKRLPVTNEMVHNLVAIELAYINTKHPDFADACGLMNNNIEEQRRNRLARELPSAVSRDKVASGGGGVGDGVQEPTTGNWRGMLKTSKAEELLAEEKSKPIPIMPASPQKGHAVNLLDVPVPVARKLSAREQRDCEVIERLIKSYFLIVRKNIQDSVPKAVMHFLVNHVKDTLQSELVGQLYKSSLLDDLLTESEDMAQRRKEAADMLKALQGASQIIAEIRETHLW
notes: Drp1 (dynamin-related protein 1), human, isoform 000 of Strack et al. 2013; Cloned in pET16b with an N-terminal Strep-tag followed by an HRV3C protease site; eluted from the resin by HRV3C cleavage; Used in high-speed co-sedimentation and GTPase assays; also called dynamin GTPase Drp1; not shown: Strep-tag, N-terminal, cleaved
Consider B1, for which, in test [1], the Kd was determined as 800 ± 400 nM. Besides, the “Drp1 GTPase activity (malachite green phosphate release) with 0.5 or 1 uM pre-polymerized actin filaments, against Drp1 alone” value in test [2] was around 3.5 fold.
